Measurements as given in the supplement of paper PMC9732359.
± gives the uncertainty stated by the source.

Assay: protein stability index of a GFP-peptide fusion (yeast GPS) (PSI 1-4); higher = more stable; sorted into four equal gates, so the index is relative within each strain
Summary of the method: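 For each peptide, the protein stability index sums the read frequency in every gate after multiplying it by the gate number. Read frequencies came from plasmids that were PCR-amplified from each gate and Illumina-sequenced, with reads assigned to strains by barcodes. The gates were four equal bins of GFP/Cherry fluorescence ratio applied to mid-log yeast in leucine-free medium carrying a pooled library of tiled 17-residue yeast protein peptides fused downstream of GFP on a Cherry-expressing plasmid.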

Sequence	protein stability index (doa10∆)	protein stability index (pdr5∆)	protein stability index (san1∆)	protein stability index (ubr1∆)
VVSTTAVIESVVNQPTG [FAS1]	2.06 ± 0.078	1.82 ± 0.087	1.99 ± 0.11	2.1 ± 0.079
VVTRSKEAFEEEIKQSA [SMC1]	3.05 ± 0.14	3.07 ± 0.13	3.11 ± 0.25	3.1 ± 0.089
VVYHPSNNELVRTNTLT [RPS8A]	2.647 ± 0.019	2.396 ± 0.018	2.455 ± 0.019	2.647 ± 0.014
VYKIYNHVMPLKPVDKL [SIN4]	1.84 ± 0.064	1.97 ± 0.072	1.63 ± 0.11	1.62 ± 0.051
WAVKEGPLAEEPIYGVQ [SNU114]	2.8 ± 0.067	2.53 ± 0.079	2.76 ± 0.061	1.8 ± 0.047
WELYTDFNEIVQYLSGA [POP3]	2.55 ± 0.13	2.31 ± 0.12	2.4 ± 0.075	2.43 ± 0.075
WIKFLLHTLYLRPASAI [SSN8]	1.74 ± 0.045	1.29 ± 0.035	1.25 ± 0.068	1.15 ± 0.038
WKATYSNEFKCMSVITA [YGL100W/SEH1]	1.87 ± 0.056	1.64 ± 0.051	1.51 ± 0.073	2.07 ± 0.032
WKTAEEVSALVRSLPKE [PRP8]	1.21 ± 0.068	1.36 ± 0.079	1.28 ± 0.12	1.08 ± 0.051
WLEQFLSCVKNDTISED [NUT1]	1.73 ± 0.046	1.51 ± 0.04	1.36 ± 0.059	1.54 ± 0.035
WLKEYEDETLRRIKEAE [YIL149C/MLP2]	2.83 ± 0.11	3.19 ± 0.12	3.17 ± 0.069	3.44 ± 0.11
WLWPLCRGELKADIGKP [CDC53]	2.11 ± 0.078	2.06 ± 0.062	1.98 ± 0.089	2.43 ± 0.09
WPKTRGVAMNPVDHPHG [RPL2A]	2.37 ± 0.078	2.25 ± 0.057	2.74 ± 0.058	2.55 ± 0.066
WQQVTALAQQKLLTPQD [GAL11]	2.29 ± 0.058	2.38 ± 0.068	2.18 ± 0.085	2.45 ± 0.06
WQSGLKMYDYEEKEESN [RPN11]	2.98 ± 0.13	3.26 ± 0.13	2.93 ± 0.1	3 ± 0.16
WRFHTPQKYVLHPQLHE [SIN4]	2.17 ± 0.071	2.11 ± 0.069	1.78 ± 0.13	1.97 ± 0.057
WSFYNGNVLINDTLPDE [SNU114]		2.23 ± 0.16		1.7 ± 0.16
WSHNGPFETFDHASIRR [CYT1]	2.79 ± 0.06	3 ± 0.062	2.79 ± 0.051	2.96 ± 0.043
WVNNPKKRFTPHTVIRR [YDL088C/ASM4]	3.42 ± 0.23			
WYLILSIISSKTSCVVE [RGR1]	1.46 ± 0.13	1.23 ± 0.12	1.58 ± 0.26	1.18 ± 0.1
YAIKKKDELERVAKSNR [RPS5]	3.41 ± 0.061	3.35 ± 0.073	3.44 ± 0.043	3.23 ± 0.068
YAKFKRNTMMIQCQIDK [RGR1]	2.23 ± 0.055	2.24 ± 0.051	2.1 ± 0.065	2.34 ± 0.033
YASYFPYLLETYANVLI [RPN7]	1.57 ± 0.088	1.43 ± 0.062	1.18 ± 0.096	1.08 ± 0.043
YATKRQEAIQQNRRLAF [PRP8]	2.43 ± 0.11	2.43 ± 0.12	2.62 ± 0.25	2.61 ± 0.067
YATQVKTDNTVDKFDFY [RPT3]	2.39 ± 0.05	2.63 ± 0.055	2.49 ± 0.052	2.62 ± 0.042
YCDPNTQEIRPVNTGVL [RRP40]	2.62 ± 0.055	2.89 ± 0.05	2.62 ± 0.052	2.76 ± 0.069

Sequence	protein stability index (doa10∆)	protein stability index (pdr5∆)	protein stability index (san1∆)	protein stability index (ubr1∆)
YDIDEIDHSDESNRQSV [ESC2]	3.19 ± 0.14	3.35 ± 0.096	3.23 ± 0.13	3.84 ± 0.25
YDPKDGLYKMMEERDGA [AAR2]	3.41 ± 0.12	2.94 ± 0.11	3.4 ± 0.092	
YDRHQSSSKQQSRLFIN [SMC4]				3.31 ± 0.2
YDRNSNNNHKDKKLLRR [SWI1]	3.09 ± 0.053	3.17 ± 0.05	3.06 ± 0.06	3.23 ± 0.041
YEAYPNTSLPPSILEDS [FAS1]	2.15 ± 0.033	2.4 ± 0.03	2.25 ± 0.037	2.4 ± 0.027
YEKAQKDLENAQVEMKS [SMC1]	3.11 ± 0.11	3.29 ± 0.084	3.31 ± 0.052	3.3 ± 0.08
YFGENSSISWKNIAQCL [YJL039C/NUP192]	1.95 ± 0.084	2.57 ± 0.066	1.93 ± 0.064	2.11 ± 0.062
YFKMFPASKHDKEVVYF [RPC34]	2.72 ± 0.16	3.2 ± 0.093	3.26 ± 0.075	3.4 ± 0.19
YFYDLDVLKDGENNINF [BRN1]	3.57 ± 0.22	3.4 ± 0.15	3.54 ± 0.079	3.29 ± 0.11
YGLIRGLKFASFIFQYY [PRP8]	2.23 ± 0.11	2.52 ± 0.13	2.02 ± 0.093	2.36 ± 0.085
YHLTKAVKLGDLKKFTS [RPN3]	1.77 ± 0.065	1.8 ± 0.062	1.54 ± 0.11	1.78 ± 0.052
YHRLSNKDMIKNLVKVL [CSN12]	3.21 ± 0.26	2.97 ± 0.19	1.41 ± 0.25	
YIFFGPIYYQKLKHMVL [RET1]	1.2 ± 0.062	1.38 ± 0.1	1.28 ± 0.12	1.39 ± 0.062
YIHRIGRTGRAANEGTA [PRP28]	3.1 ± 0.11	3.29 ± 0.1	3.26 ± 0.053	3.29 ± 0.071
YIRVNHADKDTFSSSIS [POP8]	2.76 ± 0.049	2.61 ± 0.052	2.52 ± 0.053	2.18 ± 0.037
YISAELYAQLRENGLVP [SNU114]	2.38 ± 0.068	2.21 ± 0.071	2.48 ± 0.1	2.73 ± 0.058
YKRQKSSLLYTYDENDD [ESC2]	1.25 ± 0.059	1.42 ± 0.07	1.17 ± 0.11	1.21 ± 0.06
YKYKMRYVYAHFPINVN [RPL9A]	2.29 ± 0.051	2.29 ± 0.053	2.08 ± 0.078	2.51 ± 0.041
YLDADVAKLANWFLEVY [YML031W/NDC1]	2.45 ± 0.081	2.63 ± 0.099	2.91 ± 0.12	2.79 ± 0.077
YLEDIIGTANYKPLIEE [SMC4]	2.95 ± 0.1	3.28 ± 0.11	3.17 ± 0.077	3.23 ± 0.076
YLHDNASKVLLKIFLYL [IRR1]	1.92 ± 0.099	1.64 ± 0.075	1.42 ± 0.093	1.77 ± 0.053
YLIDHIKVDGAVGNLGN [RPL22B]	2.41 ± 0.23	2.49 ± 0.14	2.53 ± 0.066	2.61 ± 0.24
YLKVSEEEIKKFDSRIR [PRP8]	2.9 ± 0.072	3.08 ± 0.083	2.78 ± 0.066	3.15 ± 0.061
YLVEAPWNDDYPFLLSF [YML103C/NUP188]	1.4 ± 0.048	1.69 ± 0.066	1.43 ± 0.097	1.61 ± 0.072
YMFANLEFSIYHRLSNK [CSN12]	2.13 ± 0.072	2.15 ± 0.076	2.42 ± 0.11	2.25 ± 0.082
YMLIEEAASSNKSFIVD [ITC1]	2.96 ± 0.078	2.91 ± 0.06	2.78 ± 0.041	2.9 ± 0.049

Sequence	protein stability index (doa10∆)	protein stability index (pdr5∆)	protein stability index (san1∆)	protein stability index (ubr1∆)
YMRLWEINETEFIRCGC [RMP1]	3.31 ± 0.13	3.46 ± 0.14	3.55 ± 0.13	3.33 ± 0.049
YNHNDGGDGRDYKGAKL [RRI1]	2.57 ± 0.13	3.2 ± 0.088	3.14 ± 0.078	2.96 ± 0.092
YNIELPLPPRIDPSVTM [RPT1]	2.44 ± 0.21	2.73 ± 0.088	2.47 ± 0.12	1.95 ± 0.083
YNLRSLNLINAKLWFYI [RPN3]	1.32 ± 0.046	1.24 ± 0.051	1.38 ± 0.083	1.48 ± 0.054
YNNNTIRKLLEKINRMI [CSI1]	3 ± 0.18	2.79 ± 0.17		3.1 ± 0.19
YNNRKCWPKDSRMRLIR [PRP8]	2.05 ± 0.09	2.13 ± 0.12	2.19 ± 0.11	2.64 ± 0.14
YNRHKLQELIVNGPNVH [RPO31]	1.19 ± 0.11	1.48 ± 0.1	1.2 ± 0.17	1.22 ± 0.095
YNRYRDLMISCLMNQET [MTR3]	2.44 ± 0.062	2.56 ± 0.063	2.31 ± 0.084	2.5 ± 0.062
YPEDKKTQQNEKSENGE [RPN3]			3.22 ± 0.041	3.13 ± 0.12
YPVYTRLRTLCRDSDDH [DIS3]	2.56 ± 0.2	2.77 ± 0.13	2.29 ± 0.24	2.95 ± 0.046
YQLNGVAPFMIKYEFNG [YMR129W/POM152]	2.63 ± 0.097	2.64 ± 0.075	2.62 ± 0.082	2.73 ± 0.057
YQSPTIFKIVQSRLMST [MED6]	1.71 ± 0.1	1.59 ± 0.13		1.96 ± 0.094
YQSSVQEPFLNSSNYAE [PRP8]	2.99 ± 0.055	2.96 ± 0.052	2.78 ± 0.053	2.9 ± 0.043
YRNNEPAGFTHKLSNWL [YDL088C/ASM4]	2.49 ± 0.072	3.04 ± 0.058	2.7 ± 0.06	2.82 ± 0.039
YSDENDPSISNNIRQAI [RRP4]	2.53 ± 0.077	2.75 ± 0.066	3 ± 0.065	2.47 ± 0.061
YSENGKHDSLRYRLLSD [RPN1]	2.5 ± 0.073	2.49 ± 0.075	2.51 ± 0.1	2.49 ± 0.1
YSIEMKPYSGKLLKVCL [ECM29]	2.62 ± 0.077	2.33 ± 0.098	2.51 ± 0.076	2.83 ± 0.069
YSLEAIKLGSTAIGIAT [PUP2]	1.54 ± 0.066	1.79 ± 0.08	1.43 ± 0.15	1.32 ± 0.069
YTDELEEDVYLDPLARV [FAS2]	3.33 ± 0.095	3.32 ± 0.1	3.54 ± 0.07	3.44 ± 0.053
YTYHSTNKDNKAELIKP [ARP9]	2.74 ± 0.065	2.69 ± 0.053	3.06 ± 0.044	2.98 ± 0.063
YTYSSTLSHLRRTNTPI [RPB2]	2.06 ± 0.043	2.13 ± 0.04	2.23 ± 0.063	2.17 ± 0.033
YVAPTKKEYIELDILNK [SRB4]	2.76 ± 0.17	3.25 ± 0.22	2.74 ± 0.13	2.75 ± 0.2
YVEAQHKLVFVVRIKGI [RPL7A]	1.09 ± 0.058	1.19 ± 0.054	1.25 ± 0.094	1.21 ± 0.053
YVLSTAVEFESVPLRKG [BRR2]	1.7 ± 0.043	1.45 ± 0.04	1.93 ± 0.083	1.34 ± 0.036
YVSDSDDSSSDNDSLTD [SIR4]	2.51 ± 0.051	2.94 ± 0.038	2.67 ± 0.056	2.63 ± 0.047
YYEQFRPDLIKEDHPLE [SIR3]	2.68 ± 0.058	2.73 ± 0.066	3.02 ± 0.043	2.67 ± 0.046
